This is an account of results in patent US20190194356A1 (CHANGZHOU BOJIA BIOTECHNOLOGY, published 2019).

Some results are limits rather than exact numbers.

Test [1] addresses T1, mouse PCSK9 antigen (NCBI NM_153565.2) (mouse, UniProt Q80W65 35-694).
T1 construct: also called msPCSK9
The experiment in a line: BLI (Octet Red 96), antibody on anti-human IgG Fc (AHC) biosensor, PCSK9 in solution, 1:1 model. The procedure: (§1) The ability of PCSK9 mAbs to bind to human, mouse or cynomolgus PCSK9 was characterized using the Octet Red 96 system (ForteBio). A kinetic-grade biosensor (Fortebio, #18-5063) of anti-human IgG Fc (AHC) was immersed in assay buffer after glycine pretreatment at pH 1.7. The PCSK9 monoclonal antibody to be detected was immobilized to the AHC biosensor at a concentration of 10 μg/ml for 120 seconds. The AHC biosensor loaded with the PCSK9 monoclonal antibody was then immersed in human PCSK9 antigen (GeneBank AX127530.1), mouse PCSK9 antigen (NCBI NM_153565.2) or cynomolgus PCSK9 antigen (NCBI NM_001112660.1) of different concentrations and buffer. The final dilution point of the analyte column only contained the detection buffer to test the non-specific binding between the buffer and the loaded biosensor. Antigen-antibody binding was detected from 80 to 120 s, and dissociation was detected from 120 to 180 s. A 60 second baseline was determined with the assay buffer. The affinity curves for anti-PCSK9 monoclonal antibodies were fitted using a 1:1 binding kinetic sensing monovalent binding model.
On the technique in general: In BLI a coated tip is dipped into the sample, and binding shifts an interference pattern.

For test [2], the target named is T2, human PCSK9 antigen (GeneBank AX127530.1) (human, UniProt Q8NBP7 31-692).
T2 construct: also called huPCSK9; human PCSK9 protein
The description is as above. The method, then:
as §1

In test [3] the target is T2, human PCSK9 antigen (GeneBank …). Put plainly: cell-based or functional assay.
Test [4] addresses neonatal Fc receptor FcRn. The experiment in a line: ELISA at pH 6.0, antibody coated at 10 µg/mL, His-tagged FcRn titrated, anti-His-Tag-HRP. The method, then: (§2) The target antibody was diluted to 10 μg/mL with coating solution (15 mM Na₂CO₃, 35 mM NaHCO₃, pH 9.6), and then added to a 96-well ELISA plate at a dose of 100 μL/well and incubated at 4° C. overnight for coating. After coating, the sample wells were washed with PBST, pH 7.4 4 times, added with 300 μL/well of 4% skim milk (PBS, pH 7.4), and incubated at 25° C. for 2 hours for blocking. After blocking, the sample wells were washed 4 times with PBST, pH 7.4, added with 100 μL/well of FcRn diluted with 0.4% skim milk dissolved in PBST (pH 6.0/7.4, respectively) (initial concentration 20 μg/mL, 2-fold gradient dilution, with 11 concentration gradients in total), and incubated at 25° C. for 1.5 hours. After incubation, the sample wells were washed 4 times with PBST, pH 6.0/7.4, added with anti-His-Tag-HRP diluted in 0.4% skim milk (1/500) (pH 6.0/7.4, respectively), and incubated at 25° C. for 1 hour. After incubation, the sample wells were washed 4 times with PBST, pH 6.0/7.4, and added with 100 μL/well of TMB for development (development conditions: 25° C., 10 to 15 minutes). After development, 100 μL/well of 1 M […] was added to stop the development reaction, and the absorbance at 450 nm was read out (background correction was performed by the subtraction of the absorbance at 650 nm).

Test [5] deals with human PCSK9 mutant protein D374H (human, UniProt Q8NBP7 31-692). Put plainly: BLI (Octet Red 96), antibody on AHC biosensor, PCSK9 mutant in solution. The method, then: as §1
(§3) Human PCSK9 protein had different mutants. It was reported in the literature that there were many human PCSK9 mutants associated with hyperlipidemia. The inventors selected human PCSK9 mutant proteins of R218S, R306S, D374H, and D374Y among them, wherein the ability of PCSK9 mAbs of the invention in binding to different mutant PCSK9 proteins was characterized using the Octet Red 96 system (ForteBio) as described above. The kinetic analysis was shown in FIG. 7 and Table 9, except for R306S, the affinities of other human PCSK9 protein mutants to the PCSK9 monoclonal antibodies of the invention (normal IgG and long half-life IgG forms) were of the same order of magnitude as native human PCSK9 protein. Among them, the kon-binding ability of long half-life PCSK9 monoclonal antibody 9M284-QL to PCSK9 R218S protein was three times higher than that of 9M284 antibody.

Test [6] deals with T3, human PCSK9 mutant protein R218S (human, UniProt Q8NBP7 31-692).
T3 construct: also called PCSK9 R218S protein
Described as above. The procedure: as §1, §3

Test [7] addresses human PCSK9 mutant protein R306S (human, UniProt Q8NBP7 31-692). The test is described as above. The procedure:
as §1, §3

The target of test [8] is human PCSK9 mutant protein D374Y (human, UniProt Q8NBP7 31-692). The test is described as above. The method, then:
as §1, §3

For test [9], the target named is T2, human PCSK9 antigen (GeneBank …). The experiment in a line: cell-based or functional assay. This is another data set of the same source.
Test [10] has the same target. Put plainly: BLI (Octet Red 96), antibody on AHC biosensor, human PCSK9 in solution, 1:1 model. The procedure:
as §1
The specific experimental procedures were shown in Example 4 and Example 5. As shown in FIG. 5 and Table 7, the affinity of the long half-life antibody 9M284QL to human PCSK9 protein was substantially identical to 9M284 because the Fab region (containing VH and VL) of the engineered antibody 9M284QL was not changed compared to 9M284. As the affinity was not changed, the long half-life Fc-modified PCSK9 antibody 9M284QL, 9M284YTE and the conventional half-life antibody 9M284 had similar EC50 in the comparative test of cellular LDL uptake experiment, as shown in FIG. 6 and Table 8.

In test [11] the target is T3, human PCSK9 mutant protein R218S. Put plainly: BLI (Octet Red 96); reference 9M284. The method, then:
as §1
Human PCSK9 protein had different mutants. It was reported in the literature that there were many human PCSK9 mutants associated with hyperlipidemia. […]

The target in test [12] is neonatal Fc receptor FcRn. Put plainly: ELISA at pH 6.0, antibody coated, His-tagged FcRn titrated; reference 9M284. The procedure: as §2
neonatal Fc receptor FcRn, sequence (P55899 24-297, chain 1 of 2): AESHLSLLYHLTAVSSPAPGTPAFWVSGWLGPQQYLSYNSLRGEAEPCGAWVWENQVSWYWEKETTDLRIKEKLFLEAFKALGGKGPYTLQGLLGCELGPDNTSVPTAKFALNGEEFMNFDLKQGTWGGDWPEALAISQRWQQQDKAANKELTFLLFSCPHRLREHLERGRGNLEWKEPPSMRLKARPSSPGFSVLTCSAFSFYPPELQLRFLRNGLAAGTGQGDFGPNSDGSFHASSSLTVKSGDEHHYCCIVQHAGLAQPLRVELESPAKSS
neonatal Fc receptor FcRn, sequence (P61769 21-119, chain 2 of 2, further chain): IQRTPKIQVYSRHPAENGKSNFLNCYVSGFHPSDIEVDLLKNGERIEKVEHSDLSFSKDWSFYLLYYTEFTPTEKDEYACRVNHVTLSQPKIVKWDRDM

T3 sequence (Q8NBP7 31-692 R218S limits assumed): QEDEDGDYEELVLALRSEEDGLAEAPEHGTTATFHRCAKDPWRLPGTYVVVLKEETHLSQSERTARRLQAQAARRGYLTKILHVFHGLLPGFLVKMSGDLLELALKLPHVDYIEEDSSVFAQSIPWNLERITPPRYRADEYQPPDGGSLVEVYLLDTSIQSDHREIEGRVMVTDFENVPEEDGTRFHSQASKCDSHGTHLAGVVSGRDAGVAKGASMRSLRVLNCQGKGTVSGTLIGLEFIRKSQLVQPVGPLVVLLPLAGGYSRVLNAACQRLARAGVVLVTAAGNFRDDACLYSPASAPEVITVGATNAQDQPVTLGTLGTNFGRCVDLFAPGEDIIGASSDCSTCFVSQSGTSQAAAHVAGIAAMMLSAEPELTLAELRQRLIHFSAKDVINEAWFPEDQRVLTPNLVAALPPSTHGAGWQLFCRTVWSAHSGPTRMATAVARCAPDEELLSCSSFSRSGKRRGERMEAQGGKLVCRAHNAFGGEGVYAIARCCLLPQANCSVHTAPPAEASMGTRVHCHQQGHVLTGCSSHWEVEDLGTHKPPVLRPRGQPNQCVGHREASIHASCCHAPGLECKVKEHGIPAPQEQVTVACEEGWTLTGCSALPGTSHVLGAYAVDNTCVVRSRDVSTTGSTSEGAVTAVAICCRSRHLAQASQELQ
T2 sequence (Q8NBP7 31-692 limits assumed): as the sequence (Q8NBP7 31-692 R218S limits assumed) above, with S188R counted along it
T1 sequence (Q80W65 35-694 limits assumed): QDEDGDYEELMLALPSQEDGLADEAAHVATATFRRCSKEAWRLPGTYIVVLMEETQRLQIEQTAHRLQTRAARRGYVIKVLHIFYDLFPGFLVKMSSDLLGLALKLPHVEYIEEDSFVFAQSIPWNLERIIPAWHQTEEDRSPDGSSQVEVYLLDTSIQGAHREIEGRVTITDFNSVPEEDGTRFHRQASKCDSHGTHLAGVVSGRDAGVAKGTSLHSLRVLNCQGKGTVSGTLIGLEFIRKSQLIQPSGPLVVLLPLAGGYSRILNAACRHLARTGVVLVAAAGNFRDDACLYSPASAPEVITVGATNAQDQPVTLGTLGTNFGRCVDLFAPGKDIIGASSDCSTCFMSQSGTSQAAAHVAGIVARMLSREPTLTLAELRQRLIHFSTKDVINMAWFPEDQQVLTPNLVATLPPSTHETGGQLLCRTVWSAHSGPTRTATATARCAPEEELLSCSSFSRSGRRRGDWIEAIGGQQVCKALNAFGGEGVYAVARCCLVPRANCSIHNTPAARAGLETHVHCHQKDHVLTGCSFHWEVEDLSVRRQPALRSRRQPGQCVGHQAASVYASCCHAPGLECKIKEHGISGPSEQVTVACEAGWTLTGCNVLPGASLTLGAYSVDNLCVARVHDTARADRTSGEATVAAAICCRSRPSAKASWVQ
human PCSK9 mutant protein D374H, sequence (Q8NBP7 31-692 D374H limits assumed): as the sequence (Q8NBP7 31-692 R218S limits assumed) above, with S188R, D344H counted along it
human PCSK9 mutant protein D374Y, sequence (Q8NBP7 31-692 D374Y limits assumed): as the sequence (Q8NBP7 31-692 R218S limits assumed) above, with S188R, D344Y counted along it
human PCSK9 mutant protein R306S, sequence (Q8NBP7 31-692 R306S limits assumed): as the sequence (Q8NBP7 31-692 R218S limits assumed) above, with S188R, R276S counted along it

B1: monoclonal antibody 9M283 (antibody, human IgG2, lambda, V domains shown)
VH: QVQLVQSGAEVKKPGSSVKVSCKASAFTFDSFGMHWVRQAPGQGLEWMGLLWSDGSDEYYADSAKGRFTISRDNSKNTLYLQMNSLRSDDTAVYYCARALGAIYSYYAMDVWGQGTTVTVSS
VL: QSALTQPPSVSGSPGQSVTISCTGTSSNIGNQFVSWYQQLPGTAPKLMIYEYNKRPSGVPDRFSGSKSGNTASLTISGLQTGDEADYYCGSWDSSLSGYVFGTGTRVTVLG
notes: the claims call them variable regions; also called PCSK9 monoclonal antibody 9M283
Usually Kd stands for the equilibrium constant for the complex coming apart. Lower therefore signals a tighter complex. As usually defined, the koff is a measure of how fast the partners let go of each other. Read a high koff as fast dissociation. As usually defined, the kon is the second-order rate constant of association. A lower kon goes with slower complex formation. In test [1], B1 returned a dissociation constant Kd of 14 nM, a koff of 0.0051 s⁻¹ and a kon of 350000 M⁻¹ s⁻¹. In test [2], this molecule showed a Kd of less than 0.001 nM, a koff of less than 1e-07 s⁻¹ and a kon of 399000 M⁻¹ s⁻¹. Besides, the “IC50, cellular LDL uptake assay (HepG2 cells, Dil-LDL, 20 µg/ml human PCSK9)” value in [3] was 6.12 nM.

B2: monoclonal antibody 9M284 (antibody, human IgG2, lambda)
heavy: QVQLVQSGAEVKKPGSSVKVSCKASAFTFDSFGMHWVRQAPGQGLEWMGLLWSDGSGEYYADSAKGRFTISRDNSKNTLYLQMNSLRSDDTAVYYCARAMGAIYYYYAMDVWGQGTTVTVSSASTKGPSVFPLAPCSRSTSESTAALGCLVKDYFPEPVTVSWNSGALTSGVHTFPAVLQSSGLYSLSSVVTVPSSNFGTQTYTCNVDHKPSNTKVDKTVERKCCVECPPCPAPPVAGPSVFLFPPKPKDTLMISRTPEVTCVVVDVSHEDPEVQFNWYVDGVEVHNAKTKPREEQFNSTFRVVSVLTVVHQDWLNGKEYKCKVSNKGLPAPIEKTISKTKGQPREPQVYTLPPSREEMTKNQVSLTCLVKGFYPSDIAVEWESNGQPENNYKTTPPMLDSDGSFFLYSKLTVDKSRWQQGNVFSCSVMHEALHNHYTQKSLSLSPG
light: QSALTQPPSVSGSPGQSVTISCTGTSSNIGNQFVSWYQQLPGTAPKLMIYEYNKRPSGVPDRFSGSKSGNTASLTISGLQTGDEADYYCGSWDSSLSGYVFGTGTRVTVLGQPKAAPSVTLFPPSSEELQANKATLVCLISDFYPGAVTVAWKADSSPVKAGVETTTPSKQSNNKYAASSYLSLTPEQWKSHRSYSCQVTHEGSTVEKTVAPTECS
notes: Fully human antibody from a phage library; the claims call 24 and 26 variable regions; also called PCSK9 monoclonal antibody 9M284
By EC50 is commonly meant the concentration that produces a half-maximal response. Read a high EC50 as a need for much substance. Molecule B2 showed an EC50 in test [4] of 71.9 µg/mL. The dissociation constant Kd in test [5] is less than 0.001 nM; in test [6], less than 0.001 nM; in test [7], 2.4 nM; in test [8] it was less than 0.001 nM; in test [10] it was less than 0.001 nM; in [1], 3 nM. The molecule also returned a Kd in [2] of less than 0.001 nM. For the same molecule, the koff is less than 1e-07 s⁻¹ in test [5]; less than 1e-07 s⁻¹ in [6]; 8.14e-05 s⁻¹ in test [7]; less than 1e-07 s⁻¹ in test [8]; less than 1e-07 s⁻¹ in [10]; 0.00094 s⁻¹ in test [1]. In test [2], the koff is less than 1e-07 s⁻¹. For the same molecule, the kon in test [5] was determined as 24900 M⁻¹ s⁻¹; in [6] it was 11400 M⁻¹ s⁻¹; in [7] it was 33900 M⁻¹ s⁻¹; in [8] it was 21800 M⁻¹ s⁻¹; in test [10], 56000 M⁻¹ s⁻¹; in test [1], 320000 M⁻¹ s⁻¹. This molecule also displayed a kon in test [2] of 366000 M⁻¹ s⁻¹. In [9], the “EC50, cellular LDL uptake experiment” value came to 4.52 µg/mL. Also, the “IC50, cellular LDL uptake assay (HepG2 cells, Dil-LDL, 20 µg/ml human PCSK9)” value in test [3] turned out to be 5.75 nM.

B3: monoclonal antibody 9M284QL (antibody)
heavy: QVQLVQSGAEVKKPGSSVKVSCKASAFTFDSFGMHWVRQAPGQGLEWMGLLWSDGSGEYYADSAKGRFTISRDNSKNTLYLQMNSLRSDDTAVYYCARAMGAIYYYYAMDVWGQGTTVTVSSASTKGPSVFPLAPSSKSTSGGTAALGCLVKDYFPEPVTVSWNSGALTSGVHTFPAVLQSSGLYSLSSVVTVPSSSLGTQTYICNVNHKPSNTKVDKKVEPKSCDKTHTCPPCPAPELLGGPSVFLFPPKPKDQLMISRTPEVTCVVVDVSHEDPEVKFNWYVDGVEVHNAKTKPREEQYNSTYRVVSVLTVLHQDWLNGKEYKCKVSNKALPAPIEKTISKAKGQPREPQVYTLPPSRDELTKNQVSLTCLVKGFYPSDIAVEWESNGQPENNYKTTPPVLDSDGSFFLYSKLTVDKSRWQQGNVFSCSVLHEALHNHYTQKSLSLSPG
light: B2 light
notes: also called long half-life PCSK9 monoclonal antibody 9M284-QL
In test [4], B3 gave an EC50 of 25 µg/mL. For the same molecule, the Kd was less than 0.001 nM in [5]; less than 0.001 nM in test [6]; 1.46 nM in [7]; less than 0.001 nM in [8]; less than 0.001 nM in test [10]. Besides, the koff is less than 1e-07 s⁻¹ in [5]; less than 1e-07 s⁻¹ in test [6]; 4.64e-05 s⁻¹ in [7]; less than 1e-07 s⁻¹ in [8]; less than 1e-07 s⁻¹ in [10]. The kon in [5] stood at 26900 M⁻¹ s⁻¹; in test [6], 36500 M⁻¹ s⁻¹; in test [7] it was 31800 M⁻¹ s⁻¹; in test [8], 29700 M⁻¹ s⁻¹; in [10] it was 58500 M⁻¹ s⁻¹. Moreover, the “EC50, cellular LDL uptake experiment” value in test [9] is 5.28 µg/mL. For the same molecule, the “fold higher kon than 9M284” value in test [11] was 3 fold. Also, in [12], the “fold smaller EC50 than 9M284” value amounted to 2.8 fold.

B4: monoclonal antibody 9M284YTE (antibody)
heavy: QVQLVQSGAEVKKPGSSVKVSCKASAFTFDSFGMHWVRQAPGQGLEWMGLLWSDGSGEYYADSAKGRFTISRDNSKNTLYLQMNSLRSDDTAVYYCARAMGAIYYYYAMDVWGQGTTVTVSSASTKGPSVFPLAPSSKSTSGGTAALGCLVKDYFPEPVTVSWNSGALTSGVHTFPAVLQSSGLYSLSSVVTVPSSSLGTQTYICNVNHKPSNTKVDKKVEPKSCDKTHTCPPCPAPELLGGPSVFLFPPKPKDTLYITREPEVTCVVVDVSHEDPEVKFNWYVDGVEVHNAKTKPREEQYNSTYRVVSVLTVLHQDWLNGKEYKCKVSNKALPAPIEKTISKAKGQPREPQVYTLPPSRDELTKNQVSLTCLVKGFYPSDIAVEWESNGQPENNYKTTPPVLDSDGSFFLYSKLTVDKSRWQQGNVFSCSVMHEALHNHYTQKSLSLSPG
light: B2 light
B4 displayed an EC50 in [4] of 24.3 µg/mL. In test [9], the “EC50, cellular LDL uptake experiment” value amounted to 4.36 µg/mL. The “fold smaller EC50 than 9M284” value in test [12] was determined as 2.8 fold.
